According to EP1086956B1:

Target: soluble human VEGF receptor Flt-1 3N (human) (UniProt P17948)
Assay: sandwich ELISA, KM1732 coated at 10 µg/ml, detection with biotin-labeled KM1730

Sequence of UniProt P17948 (P17948 27-338 limits assumed): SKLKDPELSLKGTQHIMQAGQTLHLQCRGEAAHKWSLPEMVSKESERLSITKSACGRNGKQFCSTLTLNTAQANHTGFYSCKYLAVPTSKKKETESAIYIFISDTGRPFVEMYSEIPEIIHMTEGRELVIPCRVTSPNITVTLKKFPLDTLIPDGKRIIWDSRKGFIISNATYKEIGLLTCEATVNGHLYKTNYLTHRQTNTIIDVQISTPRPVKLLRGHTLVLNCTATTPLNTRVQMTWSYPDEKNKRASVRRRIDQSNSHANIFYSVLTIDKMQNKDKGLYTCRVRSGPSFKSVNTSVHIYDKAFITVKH

B1: anti-human VEGF receptor Flt-1 mouse monoclonal antibody KM1732 (antibody, from another filing, mouse IgG1, V domains shown)
VH: QGQMQQSGAELVKPGASVKLSCKPSGFTFSSNYISWLKQKPGQSLEWIAWIYAGTGDASYNQKFTAKAHVTVDTSSSTAYMQLSSLTTEDSAIYYCARHGGDGYWFAYWGQGTLVTVSA
VL: QLVLTQSPAIMSASQGEKVTMTCSASSSVSYMHWYQQKSGTSPKRWIYDTSKLPSGVPARFSGSGSGTSYSLTISSMEAEDAATYYCQQWSSNPPTFGAGTKLELK
  minimum measurable concentration: 0.46 ng/mL
